Measured values as given in patent US12617856B2, “Protease-cleavable substrates and methods of use thereof” (CytomX Therapeutics, Inc., priority 2022, dated 2026).
Starred links: 1 amine or outer side, 2 acyl side, 3 side chain; linkers in the order of their positions; H or OH if unused. No end group written: not given here. *: point of attachment. K(DNP) = O=C([C@H](CCCCNc1ccc([N+](=O)[O-])cc1[N+](=O)[O-])N[*:1])[*:2]; Mca = COc1ccc2c(CC(=O)*)cc(=O)oc2c1

Legend:
Type in all cases: biochemical
MMP9 = MMP9 (Homo sapiens, UniProt P14780); assay: Peptide probe cleavage assay (internally quenched MCA/DNP probes) with MMP9; details: 20 μM internally quenched peptide probe, 20 nM protease, 37° C.
MMP9, sequence (P14780 94-707): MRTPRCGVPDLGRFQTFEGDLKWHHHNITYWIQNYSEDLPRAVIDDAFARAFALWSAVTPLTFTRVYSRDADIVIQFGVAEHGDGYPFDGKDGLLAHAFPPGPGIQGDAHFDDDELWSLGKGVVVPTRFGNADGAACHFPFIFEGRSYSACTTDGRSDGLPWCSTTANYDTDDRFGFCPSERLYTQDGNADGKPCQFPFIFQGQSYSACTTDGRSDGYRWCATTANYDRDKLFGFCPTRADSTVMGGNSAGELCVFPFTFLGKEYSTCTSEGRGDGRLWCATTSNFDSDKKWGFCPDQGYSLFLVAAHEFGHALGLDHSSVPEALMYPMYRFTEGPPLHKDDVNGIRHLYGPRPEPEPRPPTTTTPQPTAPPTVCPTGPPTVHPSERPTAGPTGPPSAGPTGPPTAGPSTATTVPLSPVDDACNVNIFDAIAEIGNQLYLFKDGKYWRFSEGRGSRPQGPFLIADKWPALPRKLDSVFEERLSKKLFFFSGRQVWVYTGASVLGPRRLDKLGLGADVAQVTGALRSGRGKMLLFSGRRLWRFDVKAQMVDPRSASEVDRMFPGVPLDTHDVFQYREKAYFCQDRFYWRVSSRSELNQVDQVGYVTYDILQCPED

MMP2 = biological target: T1, MMP2 (Homo sapiens, UniProt P08253); assay: Peptide probe cleavage assay (internally quenched MCA/DNP probes) with MMP2; details: 20 μM internally quenched peptide probe, 20 nM protease, 37° C.
T1 sequence (P08253 110-660): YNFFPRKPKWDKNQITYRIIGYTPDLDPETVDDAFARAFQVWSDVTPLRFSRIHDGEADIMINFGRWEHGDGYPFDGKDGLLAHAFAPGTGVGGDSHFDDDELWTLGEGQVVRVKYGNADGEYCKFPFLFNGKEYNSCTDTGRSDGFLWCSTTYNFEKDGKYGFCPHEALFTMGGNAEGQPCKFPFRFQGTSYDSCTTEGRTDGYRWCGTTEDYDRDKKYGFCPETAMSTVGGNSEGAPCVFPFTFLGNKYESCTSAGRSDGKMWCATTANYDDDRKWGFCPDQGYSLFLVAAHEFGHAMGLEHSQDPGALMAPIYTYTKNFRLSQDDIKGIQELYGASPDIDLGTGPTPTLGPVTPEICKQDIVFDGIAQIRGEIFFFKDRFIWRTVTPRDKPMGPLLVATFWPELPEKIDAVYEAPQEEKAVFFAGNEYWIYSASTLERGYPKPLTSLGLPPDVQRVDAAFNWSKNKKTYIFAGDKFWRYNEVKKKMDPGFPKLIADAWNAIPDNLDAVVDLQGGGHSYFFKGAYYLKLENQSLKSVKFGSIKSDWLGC

[1] = biological target: urokinase-type plasminogen activator (uPA) (Homo sapiens, UniProt P00749); assay: Peptide probe cleavage assay (internally quenched MCA/DNP probes) with uPA; details: 20 μM internally quenched peptide probe, 20 nM protease, 37° C.; — = below limit of quantification
[2] = biological target: T2, membrane type serine protease 1 (MT-SP1) (Homo sapiens, UniProt Q9Y5Y6); assay: Peptide probe cleavage assay (internally quenched MCA/DNP probes) with MT-SP1; details: 20 μM internally quenched peptide probe, 20 nM protease, 37° C.
T2 sequence (Q9Y5Y6 1-855): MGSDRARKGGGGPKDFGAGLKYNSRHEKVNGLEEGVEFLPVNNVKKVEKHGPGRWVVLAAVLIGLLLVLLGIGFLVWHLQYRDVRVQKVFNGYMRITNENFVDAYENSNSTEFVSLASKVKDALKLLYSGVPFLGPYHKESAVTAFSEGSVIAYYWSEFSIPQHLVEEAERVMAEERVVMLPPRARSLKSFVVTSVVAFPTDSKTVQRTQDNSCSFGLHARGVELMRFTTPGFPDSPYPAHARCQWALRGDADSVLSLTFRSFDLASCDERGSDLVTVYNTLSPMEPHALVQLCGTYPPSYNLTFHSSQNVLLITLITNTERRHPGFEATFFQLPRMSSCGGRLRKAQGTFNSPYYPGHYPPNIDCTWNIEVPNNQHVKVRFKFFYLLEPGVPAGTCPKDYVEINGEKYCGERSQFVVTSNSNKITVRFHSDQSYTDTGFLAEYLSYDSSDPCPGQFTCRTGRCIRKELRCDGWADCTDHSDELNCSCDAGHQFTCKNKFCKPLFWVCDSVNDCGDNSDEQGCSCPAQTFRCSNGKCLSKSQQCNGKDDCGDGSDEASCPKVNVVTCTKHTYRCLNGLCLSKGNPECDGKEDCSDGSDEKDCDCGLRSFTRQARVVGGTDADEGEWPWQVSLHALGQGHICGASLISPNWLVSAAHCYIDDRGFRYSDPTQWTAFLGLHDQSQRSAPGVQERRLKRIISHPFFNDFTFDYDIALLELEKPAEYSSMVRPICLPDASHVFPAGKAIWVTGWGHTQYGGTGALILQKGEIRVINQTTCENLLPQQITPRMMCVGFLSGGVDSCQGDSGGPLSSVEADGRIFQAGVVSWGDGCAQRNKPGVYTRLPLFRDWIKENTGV

MMP14 = MMP14 (Homo sapiens, UniProt P50281); assay: Peptide probe cleavage assay (internally quenched MCA/DNP probes) with MMP14; details: 20 μM internally quenched peptide probe, 20 nM protease, 37° C.; — = below limit of quantification

Row | Probe Cleavage (pM/s) MMP9 (MMP9) | Probe Cleavage (pM/s) MMP2 (MMP2) | Probe Cleavage (pM/s) uPA [1] | Probe Cleavage (pM/s) MT-SP1 [2] | Probe Cleavage (pM/s) MMP14 (MMP14) | Substance
1 | 581 pM/s | 66.4 pM/s | – | – | – | (MCA)-Gly-Ser-Trp-Gly-Leu-Ser-Gly-Arg-Ser-Gly-Lys (DNP)-D-Arg (Mca-GSWGLSGRSG-{K(DNP)-dR}; SMILES COc1ccc2c(CC(=O)NCC(=O)N[C@@H](CO)C(=O)N[C@@H](Cc3c[nH]c4ccccc34)C(=O)NCC(=O)N[C@@H](CC(C)C)C(=O)N[C@@H](CO)C(=O)NCC(=O)N[C@@H](CCCNC(=N)N)C(=O)N[C@@H](CO)C(=O)NCC(=O)N[C@@H](CCCCNc3ccc([N+](=O)[O-])cc3[N+](=O)[O-])C(=O)N[C@H](CCCNC(=N)N)C(=O)O)cc(=O)oc2c1) [CM WGLSGRS]
2 | – | – | 48.3 pM/s | – | – | (MCA)-Ser-Pro-Trp-Gly-Leu-Ser-Gly-Arg-Gly-Ser-Lys (DNP)-D-Arg (Mca-SPWGLSGRGS-{K(DNP)-dR}; SMILES COc1ccc2c(CC(=O)N[C@@H](CO)C(=O)N3CCC[C@H]3C(=O)N[C@@H](Cc3c[nH]c4ccccc34)C(=O)NCC(=O)N[C@@H](CC(C)C)C(=O)N[C@@H](CO)C(=O)NCC(=O)N[C@@H](CCCNC(=N)N)C(=O)NCC(=O)N[C@@H](CO)C(=O)N[C@@H](CCCCNc3ccc([N+](=O)[O-])cc3[N+](=O)[O-])C(=O)N[C@H](CCCNC(=N)N)C(=O)O)cc(=O)oc2c1) [CM PWGLSGR]
3 | – | – | 12.9 pM/s | 5.10 pM/s | – | (MCA)-Ser-Pro-Trp-Gly-Leu-Ser-Gly-Gly-Gly-Ser-Lys (DNP)-D-Arg (Mca-SPWGLSGGGS-{K(DNP)-dR}; SMILES COc1ccc2c(CC(=O)N[C@@H](CO)C(=O)N3CCC[C@H]3C(=O)N[C@@H](Cc3c[nH]c4ccccc34)C(=O)NCC(=O)N[C@@H](CC(C)C)C(=O)N[C@@H](CO)C(=O)NCC(=O)NCC(=O)NCC(=O)N[C@@H](CO)C(=O)N[C@@H](CCCCNc3ccc([N+](=O)[O-])cc3[N+](=O)[O-])C(=O)N[C@H](CCCNC(=N)N)C(=O)O)cc(=O)oc2c1) [CM PWGLSG]
4 | – | 816 pM/s | – | – | 224 pM/s | CM AWGLSGRS: internally quenched MCA/DNP probe SEQ ID NO: 699 with one residue replaced by Ala, CM AWGLSGRS (SEQ ID NO: 686) (not fully specified (N-terminus, C-terminus); also: MCA/DNP internal quench labels, places not given here)
5 | – | – | – | – | 190 pM/s | CM LSGRSPAGL: internally quenched MCA/DNP probe of design SEQ ID NO: 703, X1 Arg, X2 Ala, CM LSGRSPAGL (SEQ ID NO: 694) (also: MCA/DNP internal quench labels, places not given here)
6 | 456 pM/s | 202 pM/s | – | – | 29.7 pM/s | CM PWGASGRS: internally quenched MCA/DNP probe SEQ ID NO: 699 with one residue replaced by Ala, CM PWGASGRS (SEQ ID NO: 689) (not fully specified (N-terminus, C-terminus); also: MCA/DNP internal quench labels, places not given here)
7 | – | – | 126 pM/s | – | – | CM PWGLAGRS: internally quenched MCA/DNP probe SEQ ID NO: 699 with one residue replaced by Ala, CM PWGLAGRS (SEQ ID NO: 690) (not fully specified (N-terminus, C-terminus); also: MCA/DNP internal quench labels, places not given here)
8 | 3830 pM/s | 3800 pM/s | – | 1230 pM/s | 4380 pM/s | CM PWGLRS: internally quenched MCA/DNP peptide probe of design SEQ ID NO: 698, CM PWGLRS (SEQ ID NO: 48) (also: MCA/DNP internal quench labels, places not given here)
9 | – | – | 1.80 pM/s | 13.0 pM/s | – | CM PWGLSGAS: internally quenched MCA/DNP probe SEQ ID NO: 699 with one residue replaced by Ala, CM PWGLSGAS (SEQ ID NO: 692) (not fully specified (N-terminus, C-terminus); also: MCA/DNP internal quench labels, places not given here)
10 | – | – | 380 pM/s | – | – | CM PWGLSGRA: internally quenched MCA/DNP probe SEQ ID NO: 699 with one residue replaced by Ala, CM PWGLSGRA (SEQ ID NO: 693) (not fully specified (N-terminus, C-terminus); also: MCA/DNP internal quench labels, places not given here)
11 | 25500 pM/s | 11700 pM/s | 3210 pM/s | 2390 pM/s | 9580 pM/s | CM RSPWGL: internally quenched MCA/DNP peptide probe of design SEQ ID NO: 698, CM RSPWGL (SEQ ID NO: 90) (also: MCA/DNP internal quench labels, places not given here)
